Data on one substance can be found in PMC8192573.

In general, stoichiometry N refers to a count of units in the complex or per binding partner.

This assay concerns the target OsBOR3_(∆1–642) (Oryza sativa). The experiment in a line: cryo-EM structure; OsBOR3 (1 mg/mL) in 20 mM Tris (pH 7.5), 150 mM NaCl, 0.75x CMC LMNG on Quantifoil grids; 116,140 particles; 3D refinement with C2 symmetry imposed; 5-6 Å.

Consider OsBOR3_(∆1–642) (domain or fragment), for which the stoichiometry N worked out at 2.
